# Results from patent US20140120095A1 (Boehringer Ingelheim, published 2014).
# Positions count from the first letter of the chain named. Like-named read-outs stand apart in the source and are kept apart here.
# T1: recombinant mouse VEGF164 (mouse, UniProt Q00731-2 27-190, biotinylated as the labelled ligand of the mVEGF164/mVEGFR2 AlphaScreen)
# T1 construct: also called mVEGF164; rmVEGF164
# T1 sequence (looked up): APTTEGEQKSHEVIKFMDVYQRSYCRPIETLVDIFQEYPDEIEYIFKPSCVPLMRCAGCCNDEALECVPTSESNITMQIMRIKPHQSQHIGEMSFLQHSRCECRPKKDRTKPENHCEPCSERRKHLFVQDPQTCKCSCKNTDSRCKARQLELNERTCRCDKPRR
# T2: human DLL1 (human, UniProt O00548 18-545, limits assumed)
# T2 construct: also called hDLL1
# T2 sequence (looked up): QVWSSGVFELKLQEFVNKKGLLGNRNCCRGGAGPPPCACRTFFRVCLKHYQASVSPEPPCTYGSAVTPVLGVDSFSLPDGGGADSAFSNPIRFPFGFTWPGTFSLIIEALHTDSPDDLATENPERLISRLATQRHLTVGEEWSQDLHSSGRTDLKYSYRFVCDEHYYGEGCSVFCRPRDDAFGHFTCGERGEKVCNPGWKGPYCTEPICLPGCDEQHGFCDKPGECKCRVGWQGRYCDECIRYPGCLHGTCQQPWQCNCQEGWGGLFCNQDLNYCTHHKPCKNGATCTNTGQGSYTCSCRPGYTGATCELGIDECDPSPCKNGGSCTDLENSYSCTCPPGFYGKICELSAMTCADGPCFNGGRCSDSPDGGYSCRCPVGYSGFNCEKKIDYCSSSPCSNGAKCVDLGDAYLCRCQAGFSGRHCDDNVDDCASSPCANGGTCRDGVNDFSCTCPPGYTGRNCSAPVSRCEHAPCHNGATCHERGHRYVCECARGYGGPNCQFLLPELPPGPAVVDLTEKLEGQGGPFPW
# B1: VEGFBII038 (VHH)
# VHH: DVQLVESGGGLVQPGGSLRLSCAASGRTFSSYSMGWFRQAPGKEREFVVAISKGGYKYDAVSLEGRFTISRDNAKNTVYLQINSLRPEDTAVYYCASSRAYGSSRLRLADTYEYWGQGTLVTVSS
# notes: also called VEGFBII0038
# B2: VEGFBII021 (VHH, not shown: small tags and cut ends)
# chain: EVQLVESGGGLVQTGDSLRLSCEVSGRTFSSYSMGWFRQAQGKEREFVVAISKGGYKYDSVSLEGRFTISKDNAKNTVYLQINSLKPEDTAVYYCASSRAYGSSRLRLADTYEYWGQGTQVTVSSGGGGSGGGGSGGGGSGGGGSGGGGSGGGGSGGGGSGGGGSEVQLVESGGGLVQPGGSLRLSCVASGIRFMSMAWYRQAPGKHRELVARISSGGTTAYVDSVKGRFTISRDNSKNTVYLQMNSLKAEDTAVYYCNTFSSRPNPWGAGTQVTVSS
# notes: Bivalent (heterodimeric) anti-VEGF VHH; also called VEGFBII23B04-40GS-5B05
# B3: DLLBII08C11 (VHH)
# VHH: EVQLVESGGGLVQAGGSLRLSCAASGFTFDDYAIGWFRQAPGKEREGVSCISSHDRTTYYADSVKGRFTISSDNAKNTVYLQMNSLKPEDTAVYYCAADPLVCGYNDPRLADYWGQGTQVTVSS
# notes: also called DLLBII8C11
# B4: DLLBII17F10 (VHH)
# VHH: EVQLVESGGGLVQAGGSLRLSCASSGRTLLNYAMGWFRQAPGKEREFVSGINWSGGSTYYADSVKGRFTISRDNAENTVYLHMNSLKPEDTAVYYCAAAHDNYWFTDDSLGRGLKYWGQGTQVTVSS
# B5: VEGFBII5B05 (VHH)
# VHH: EVQLVESGGGLVQPGGSLRLSCVASGIRFMSMAWYRQAPGKHRELVARISSGGTTAYVDSVKGRFTISRDNSKNTVYLQMNSLKAEDTAVYYCNTFSSRPNPWGAGTQVTVSS
# notes: also called VEGFBII05B05; VEGFBII5B05(wt)
# B6: VEGFBII032 (VHH)
# VHH: B5 VHH with V23A, M30I, H42Q, V58A, K84R, A105Q, Q108L
# notes: also called VEGFBII0032
# B7: DLLBII17B03 (VHH)
# VHH: EVQLVESGGGLVQPGGSLRLSCAASGFTFENYALGWFRQAPGKEREWVSCISSSDGTTYYADSVKGRFTISRDNVKNTVYLQMNRLKPEDTAIYYCALSLGSSWCAYDYWGQGTQVTVSS
# Columns and labels:
# [1] = target: T3, recombinant human VEGF165 (human, UniProt P15692-4 27-191, biotinylated in the competition assays); assay: SPR Biacore, VEGF165
# T3 construct: Bought protein; also called hVEGF165; rhVEGF165
# [2] = target: T3, recombinant human VEGF165; assay: AlphaScreen, hVEGF165/hVEGFR2-Fc competition, -HSA
# [3] = target: T3, recombinant human VEGF165; assay: AlphaScreen, hVEGF165/hVEGFR2-Fc competition, +5 uM HSA
# [4] = target: T3, recombinant human VEGF165; assay: AlphaScreen, hVEGF165/hVEGFR2-Fc competition
# [5] = target: T3, recombinant human VEGF165; assay: AlphaScreen, hVEGF165/hVEGFR1-Fc competition, -HSA
# [6] = target: T4, VEGF (used to stimulate HUVEC cells) (UniProt P15692-4 27-191, limits assumed); assay: cell-based or functional assay
# [7] = target: T3, recombinant human VEGF165; assay: AlphaScreen, hVEGF165/hVEGFR2-Fc competition; remark: listed apart in the source
# Protocol: (§1) Finally, streptavidin donor beads (20 μg/ml) are added and after 1 hour of incubation in the dark, fluorescence is measured on the Envision microplate reader.
# [8] = target: T3, recombinant human VEGF165; assay: SPR Biacore, immobilised hVEGF165, two state reaction model
# Protocol: (§2) Samples are injected for 2 min and allowed to dissociate up to 20 min at a flow rate of 45 μl/min. In between sample injections, the chip surface is regenerated with 100 mM HCl. HBS-EP+(Hepes buffer pH7.4+EDTA) is used as running buffer. Binding curves are fitted using a Two State Reaction model by Biacore T100 Evaluation Software v2.0.1.
# ^{(a)}KD = kd1/kₐ₁ * (kd2/(kd2 + kₐ₂)) ^{(b)}Curves are fitted using a Two State Reaction model by Biacore T100 Evaluation Software v2.0.1
# [9] = target: T1, recombinant mouse VEGF164; assay: binding ELISA, coated rmVEGF164
# Protocol: Cross-reactivity to mouse VEGF164 is determined using a binding ELISA. […] Wells are blocked with a casein solution (1% in PBS). […] A mouse VEGF164 reactive mAb is included as positive control.
# [10] = target: T3, recombinant human VEGF165; assay: binding ELISA, coated rhVEGF165
# [11] = target: T3, recombinant human VEGF165; assay: AlphaScreen, hVEGF165/hVEGFR1-Fc competition; set-up: % inhibition: concentration or dose not given beside the values
# Protocol: as §1
# [12] = target: T4, VEGF (used to stimulate HUVEC cells); assay: cell-based or functional assay; remark: listed apart in the source
# [13] = target: T4, VEGF (used to stimulate HUVEC cells); assay: cell-based or functional assay; remark: listed apart in the source
# [14] = target: T3, recombinant human VEGF165; assay: ELISA, hVEGF165/hVEGFR2-Fc competition; set-up: % inhibition: concentration or dose not given beside the values
# [15] = target: T3, recombinant human VEGF165; assay: AlphaScreen, hVEGF165/hVEGFR1-Fc competition
# Protocol: as §1
# [16] = target: T3, recombinant human VEGF165; assay: ELISA, hVEGF165/hVEGFR1-Fc competition; set-up: % inhibition: concentration or dose not given beside the values
# [17] = target: T3, recombinant human VEGF165; assay: AlphaScreen, hVEGF165/hVEGFR2-Fc competition; set-up: % inhibition: concentration or dose not given beside the values
# Protocol: as §1
# [18] = target: T5, human Jagged-1 (human, UniProt P78504 34-1067, limits assumed); assay: binding ELISA on coated recombinant human Jagged-1, OD 405 nm
# T5 construct: also called hJagged-1; hJAG1
# Outline: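 Plates coated overnight at 4° C with 1 μg/mL ligand, blocked with 1% casein in PBS. VHH dilution series applied; bound VHH detected via mouse anti-myc then anti-mouse-AP conjugate.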
# [19] = target: T6, recombinant human DLL4 (human, UniProt Q9NR61 25-522); assay: hDLL4 ELISA screen, periplasmic extract
# T6 construct: also called rhDLL4; hDLL4
# [20] = target: T6, recombinant human DLL4; assay: binding ELISA, coated rhDLL4
# Protocol: (§3) In order to determine cross-reactivity to mouse DII4 a binding ELISA is performed. […] Wells are blocked with a casein solution (1% in PBS). VHHs are applied as dilution series and binding is detected using a mouse anti-myc (Roche) and an anti-mouse-AP conjugate (Sigma, St Louis, Mo., USA) (FIG. 7 A-H). As reference, binding to human DII4 is measured.
# [21] = target: T7, recombinant mouse DLL4 (mouse, UniProt Q9JI71 27-532); assay: binding ELISA on coated recombinant mouse DLL4, OD 405 nm
# T7 construct: extracellular domain; also called rmDLL4; mDLL4
# Protocol: as §3
# [22] = target: T6, recombinant human DLL4; assay: competition AlphaScreen, biot-hDLL4/hNotch1-Fc; partial inhibitor
# [23] = target: T2, human DLL1; assay: binding ELISA on coated recombinant human DLL1, OD 405 nm
# Protocol: Absence of binding to homologous ligands human DLL1 and human Jagged-1 is assessed via solid phase binding assay (ELISA). In brief, human DLL1 (Alexis, San Diego, Calif., USA) and human Jagged-1 (Alexis, San Diego, Calif., USA) are coated overnight at 4° C. at 1 μg/mL in a 96-well MaxiSorp plate (Nunc, Wiesbaden, Germany). Wells are blocked with a casein solution (1% in PBS). VHHs are applied as dilution series and binding is detected using a mouse anti-myc (Roche) and an anti-mouse-AP conjugate (Sigma, St. Louis, Mo., USA).
# [24] = target: T6, recombinant human DLL4; assay: Biacore off-rate, periplasmic extract; heterogeneous fit, fast off-rate
# [25] = target: T6, recombinant human DLL4; assay: Biacore off-rate, periplasmic extract; heterogeneous fit, slow off-rate
# [26] = target: T6, recombinant human DLL4; assay: AlphaScreen biot-hDLL4/hNotch1-Fc, periplasmic extract
# [27] = target: T3, recombinant human VEGF165; assay: SPR Biacore, hVEGF165
# Protocol: as §2
# [28] = target: T3, recombinant human VEGF165; assay: ProteOn off-rate assay, periplasmic extract on coated hVEGF165
# Protocol: One additional variant is constructed in which the potential oxidation site at position M30 (CDR1 region, see FIG. 38 indicated as bold italic residue) is removed by introduction of a M30I mutation. […] Off-rates are calculated and compared to the off-rates of the parental VEGFBII5B05.
# T6 sequence (Q9NR61 25-522): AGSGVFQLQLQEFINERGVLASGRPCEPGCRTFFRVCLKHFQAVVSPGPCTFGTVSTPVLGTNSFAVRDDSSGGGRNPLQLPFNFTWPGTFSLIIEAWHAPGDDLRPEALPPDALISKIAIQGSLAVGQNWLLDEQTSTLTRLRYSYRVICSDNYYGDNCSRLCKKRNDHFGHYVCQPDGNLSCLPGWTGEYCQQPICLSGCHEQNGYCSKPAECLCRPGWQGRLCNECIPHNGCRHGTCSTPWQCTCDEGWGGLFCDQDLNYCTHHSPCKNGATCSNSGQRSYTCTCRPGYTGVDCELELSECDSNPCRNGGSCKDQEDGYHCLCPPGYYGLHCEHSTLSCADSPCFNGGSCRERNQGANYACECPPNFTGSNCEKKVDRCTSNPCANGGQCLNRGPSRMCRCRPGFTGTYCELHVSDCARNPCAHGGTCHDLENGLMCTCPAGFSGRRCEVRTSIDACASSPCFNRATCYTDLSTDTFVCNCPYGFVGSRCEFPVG
# T7 sequence (Q9JI71 27-532): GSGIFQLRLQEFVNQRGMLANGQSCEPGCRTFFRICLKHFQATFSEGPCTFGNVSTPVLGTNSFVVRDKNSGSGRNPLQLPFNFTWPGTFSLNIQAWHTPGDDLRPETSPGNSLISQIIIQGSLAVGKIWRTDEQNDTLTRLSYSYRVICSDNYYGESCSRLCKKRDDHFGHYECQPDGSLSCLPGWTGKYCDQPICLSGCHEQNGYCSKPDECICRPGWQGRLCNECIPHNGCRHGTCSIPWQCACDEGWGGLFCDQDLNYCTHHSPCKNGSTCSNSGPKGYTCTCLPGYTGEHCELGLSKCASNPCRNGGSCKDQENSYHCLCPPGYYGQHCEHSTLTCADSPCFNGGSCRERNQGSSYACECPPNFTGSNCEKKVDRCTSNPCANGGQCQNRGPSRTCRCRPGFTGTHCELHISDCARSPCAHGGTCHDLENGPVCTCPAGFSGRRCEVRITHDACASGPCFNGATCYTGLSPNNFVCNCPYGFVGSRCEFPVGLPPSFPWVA
binder,measurement,setting,value
B1,Kd,[1],0.36 nM
same,% inh,[2],100%
same,IC50,[2],0.2 nM
same,IC50,[3],0.1 nM
same,% inhibition,[4],100%
same,IC50,[4],0.143 nM
same,% inh,[5],50%
same,IC50,[5],0.2 nM
same,"% inhibition, VEGF HUVEC proliferation assay",[6],92%
same,"IC50, VEGF HUVEC proliferation assay",[6],0.6 nM
B2,IC50,[7],0.009 nM
same,Kd,[8],0.07 nM
same,ka1,[8],1.2e+06 M⁻¹ s⁻¹
same,ka2,[8],0.023 s⁻¹
same,kd1,[8],0.011 s⁻¹
same,kd2,[8],0.00019 s⁻¹
same,EC50,[9],0.502 nM
same,EC50,[10],0.334 nM
same,% inhibition,[11],100%
same,IC50,[11],0.012 nM
same,"% inhibition, VEGF HUVEC Erk phosphorylation assay",[12],103%
same,"IC50, VEGF HUVEC Erk phosphorylation assay",[12],0.21 nM
same,"% inhibition, VEGF HUVEC proliferation assay",[13],98%
same,"IC50, VEGF HUVEC proliferation assay",[13],0.4 nM
same,% inhibition,[14],100%
same,IC50,[14],0.204 nM
same,% inhibition,[15],100%
same,IC50,[15],0.016 nM
same,% inhibition,[16],97%
same,IC50,[16],0.254 nM
same,% inhibition,[17],100%
same,IC50,[17],0.007 nM
B3,binding result,[18],no binding (tested: 2.5e-7 M)
same,% inh,[19],57%
same,EC50,[20],1.1 nM
same,binding result,[21],no binding (tested: 2.5e-7 M)
same,IC50,[22],0.7 nM
same,binding result,[23],no binding (tested: 2.5e-7 M)
B4,% inh,[19],98%
same,koff,[24],0.0011 s⁻¹
same,EC50,[20],0.9 nM
same,koff,[25],0.00031 s⁻¹
same,% inh,[26],88%
B5,Kd,[27],32 nM
same,binding level (RU),[28],242 RU
same,koff,[28],0.0615 s⁻¹
B6,Kd,[27],44 nM
B7,% inh,[19],76%
same,koff,[24],0.0012 s⁻¹
same,koff,[25],0.00022 s⁻¹
same,% inh,[26],77%
